We go through one substance from publication PMC3581536.

This experiment concerns the target MazFa tagged with 6 histidine at its C-terminus (Anabaena sp. PCC 7120). The experiment can be described thus: pull-down; MazEa and MazFa-His6 co-expressed in E. coli BL21(DE3)(pJS798); co-purified on Ni2+-NTA His.Bind resin under native conditions; 15% SDS-PAGE, bands identified by MALDI-TOF MS, densitometry with Image J.

For MazEa (natural protein), the stoichiometry N (MazEa per MazFa (molar ratio)) is 0.5.
